Results from US20100017897A1 (CHILDREN S HOSPITAL OF PHILADELPHIA, published 2010).

B1: Bruton Tyrosine Kinase (other, UniProt Q06187 214-274, looked up)
chain: SELKKVVALYDYMPMNANDLQLRKGDEYFILEESNLPWWRARDKNGQEGYIPSNYVTEAED
notes: domain: SH3 domain; Array spot; also called BTK
B2: Grb2-related adaptor protein, SH3 Domain #2 (other, UniProt Q13588 158-217, looked up)
chain: PGACFAQAQFDFSAQDPSQLSFRRGDIIEVLERPDPHWWRGRSCGRVGFFPRSYVQPVHL
notes: domain: SH3 Domain #2; Array spot; also called Grap-D2
B3: Nebulette (other, UniProt O76041 954-1014, looked up)
chain: PNLRTYRAMYDYSAQDEDEVSFRDGDYIVNVQPIDDGWMYGTVQRTGRTGMLPANYIEFVN
notes: domain: SH3 domain; Array spot; also called NEBL
B4: Abelson-related protein; Arg tyrosine kinase (other, UniProt P42684 107-167, looked up)
chain: SDPNLFVALYDFVASGDNTLSITKGEKLRVLGYNQNGEWSEVRSKNGQGWVPSNYITPVNS
notes: domain: SH3 domain; Array spot; also called Abl2
B5: Osteoclast stimulating factor 1 (other, UniProt Q92882 12-71, looked up)
chain: GQVKVFRALYTFEPRTPDELYFEEGDIIYITDMSDTNWWKGTSKGRTGLIPSNYVAEQAE
notes: domain: SH3 domain; Array spot; also called OSF
B6: Tyrosine-protein kinase Tec (other, UniProt P42680 179-239, looked up)
chain: NSEEIVVAMYDFQAAEGHDLRLERGQEYLILEKNDVHWWRARDKYGNEGYIPSNYVTGKKS
notes: domain: SH3 domain; Array spot
B7: Peroxisomal membrane protein PEX13 (other, UniProt Q92968 272-336, looked up)
chain: DDHVVARAEYDFAAVSEEEISFRAGDMLNLALKEQQPKVRGWLLASLDGQTTGLIPANYVKILGK
notes: domain: SH3 domain; Array spot; also called PEXD
B8: PAK-interacting exchange factor beta (other, UniProt Q14155 184-243, looked up)
chain: NNQLVVRAKFNFQQTNEDELSFSKGDVIHVTRVEEGGWWEGTLNGRTGWFPSNYVREVKA
notes: domain: SH3 domain; Array spot; also called Y124
B9: Lyn, Src family of non-receptor protein Tyrosine kinase (other, UniProt P07948 63-123, looked up)
chain: EQGDIVVALYPYDGIHPDDLSFKKGEKMKVLEEHGEWWKAKSLLTKKEGFIPSNYVAKLNT
notes: as for B6
B10: transcriptional co-activator with PDZ-binding motif (TAZ) (other, human, UniProt Q9GZV5 124-157, looked up)
chain: LPLPPGWEMTFTATGQRYFLNHIEKITTWQDPRK
notes: domain: WW domain; Array spot

target: T1, cytosolic domain of human PRRG4 (human, UniProt Q9BZD6 139-226); assay: SH3 domain array probed with purified cytosolic hPRRG4; listed as a hit
T1 construct: Expressed in insect cells; also called cytosolic hPPRG4; cystosolic domain of hPPRG4; not shown: purified by HA and histidine columns, so HA and His tags are implied
T1 sequence: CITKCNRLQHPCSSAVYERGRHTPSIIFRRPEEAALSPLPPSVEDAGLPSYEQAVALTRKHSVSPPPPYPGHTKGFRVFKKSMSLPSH
Description: (§1) The cystosolic domain of hPPRG4 was expressed in insect cells and proteins were purified by HA and histidine columns. Interactions of cytosolic hPPRG4 with different SH3 and WW domains were tested by incubating purified hPRRG4 proteins with arrays containing SH3 and WW domains of several proteins. After incubation, PRRG4 bound to several proteins, most of which are non-receptor tyrosine kinases or scaffolding proteins. These newly identified binding partners provide valuable therapeutic targets for the isolation and characterization of therapeutic agents that impact PRRG4 mediated oncogenesis.

Binding result, binds:
B1
B2
B3
B4
B5
B6
B7
B8
B9

target: T1, cytosolic domain of human PRRG4; assay: WW domain array probed with purified cytosolic hPRRG4; listed as a hit
From the text: PRRG4 has one WW-binding domain in its cytosolic domain. WW domains are involved in several cellular processes including cell cycle control and cell proliferation. In order to analyze the possible interactions of PRRG4 with different WW motif containing proteins, the cytosolic domain of human PRRG4 was purified by our group and used in TranSignal WW Domain Arrays. This array contains WW domains from 67 different human proteins and each WW domain is spotted in duplicate. […] Among these proteins Yes-Associated Protein1 (YAP 1) and Nedd4 are particularly important as they are known to play essential roles in several cellular activities including cell proliferation. FIGS. 9 and 10 are tables that show the proteins that are used on the array.
as §1

Binding result, binds:
B10
